Test results from the supplement of paper PMC9112550, “Optimization of the antimicrobial peptide Bac7 by deep mutational scanning” (BMC Biology, 2022).

Each sequence was assayed on Escherichia coli TOP10 (assay: shrunken log2 fold change of peptide-encoding DNA abundance (4.5 h post-induction vs induction); higher = less antimicrobial activity (less host growth inhibition)). Conditions: time post-induction: 4.5 h; library: site-saturation at positions 5, 18, 19, 20.
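Also: peptides expressed intracellularly from a pBAD plasmid library in pooled LB shake-flask culture, induced with 0.3% L-arabinose, DNA abundance read by NGS, three biological replicates, DESeq2 with apeglm shrinkage.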

Which “shrunken log2 fold change” value does the source give for RRIRDRPPRLPRPRPRPRNPPRP here?
The value was -0.0578.

For RRIRFRPPRLPRPRPRPRIGPRP, which “shrunken log2 fold change” value is on record?
The value was 0.543.

With RRIRFRPPRLPRPRPRPDCVPRP as the sequence, how does the “shrunken log2 fold change” value read?
Its value is -0.0904.

Which “shrunken log2 fold change” value does the source give for RRIRPRPPRLPRPRPRPADDPRP here?
Its value is 0.118.

Which “shrunken log2 fold change” value does the source give for RRIRYRPPRLPRPRPRPTSCPRP here?
Its value is -0.331.

With RRIRMRPPRLPRPRPRPMAFPRP as the sequence, how does the “shrunken log2 fold change” value read?
The value was 0.102.

How did the “shrunken log2 fold change” value turn out when RRIRVRPPRLPRPRPRPMCNPRP was run?
Its value is -0.263.

For RRIRMRPPRLPRPRPRPEMTPRP, which “shrunken log2 fold change” value is on record?
The value was -0.00169.

RRIRKRPPRLPRPRPRPMGKPRP was tested. Which “shrunken log2 fold change” value did it give?
The value was -0.0982.

How did the “shrunken log2 fold change” value turn out when RRIRHRPPRLPRPRPRPNGQPRP was run?
Its value is 0.024.

How did the “shrunken log2 fold change” value turn out when RRIRCRPPRLPRPRPRPGFAPRP was run?
Its value is 0.354.

How did the “shrunken log2 fold change” value turn out when RRIRLRPPRLPRPRPRPTTPPRP was run?
Its value is 0.138.

How did the “shrunken log2 fold change” value turn out when RRIRWRPPRLPRPRPRPTTLPRP was run?
The value was -0.0826.

RRIRMRPPRLPRPRPRPTQWPRP was tested. Which “shrunken log2 fold change” value did it give?
Its value is 0.479.

For RRIRLRPPRLPRPRPRPISGPRP, which “shrunken log2 fold change” value is on record?
The value was -0.462.

RRIRRRPPRLPRPRPRPLEMPRP was tested. Which “shrunken log2 fold change” value did it give?
The value was 0.181.

With RRIRKRPPRLPRPRPRPQGHPRP as the sequence, how does the “shrunken log2 fold change” value read?
The value was 0.0492.

Which “shrunken log2 fold change” value does the source give for RRIRTRPPRLPRPRPRPCAWPRP here?
The value was -0.277.

How did the “shrunken log2 fold change” value turn out when RRIRWRPPRLPRPRPRPIILPRP was run?
Its value is -0.283.

Which “shrunken log2 fold change” value does the source give for RRIRLRPPRLPRPRPRPHCVPRP here?
Its value is -0.068.

How did the “shrunken log2 fold change” value turn out when RRIRERPPRLPRPRPRPVGDPRP was run?
The value was -0.0343.

How did the “shrunken log2 fold change” value turn out when RRIRTRPPRLPRPRPRPNYRPRP was run?
Its value is -0.0168.

Which “shrunken log2 fold change” value does the source give for RRIRPRPPRLPRPRPRPRQKPRP here?
Its value is 0.0891.

With RRIRARPPRLPRPRPRPMTHPRP as the sequence, how does the “shrunken log2 fold change” value read?
The value was 0.151.

For RRIRQRPPRLPRPRPRPLLEPRP, which “shrunken log2 fold change” value is on record?
The value was 0.105.

RRIRHRPPRLPRPRPRPSMVPRP was tested. Which “shrunken log2 fold change” value did it give?
The value was -0.372.

With RRIRHRPPRLPRPRPRPVHHPRP as the sequence, how does the “shrunken log2 fold change” value read?
The value was -0.0583.

With RRIRARPPRLPRPRPRPKYEPRP as the sequence, how does the “shrunken log2 fold change” value read?
The value was 0.13.

RRIRRRPPRLPRPRPRPMWHPRP was tested. Which “shrunken log2 fold change” value did it give?
The value was -0.03.

With RRIRPRPPRLPRPRPRPGEKPRP as the sequence, how does the “shrunken log2 fold change” value read?
Its value is -0.0882.

With RRIRWRPPRLPRPRPRPMDYPRP as the sequence, how does the “shrunken log2 fold change” value read?
The value was -0.314.

Which “shrunken log2 fold change” value does the source give for RRIRWRPPRLPRPRPRPICYPRP here?
The value was -0.214.

For RRIRYRPPRLPRPRPRPNAMPRP, which “shrunken log2 fold change” value is on record?
Its value is -0.166.

Which “shrunken log2 fold change” value does the source give for RRIRNRPPRLPRPRPRPAQQPRP here?
The value was 0.017.

For RRIRFRPPRLPRPRPRPFIHPRP, which “shrunken log2 fold change” value is on record?
Its value is -0.724.

For RRIRTRPPRLPRPRPRPRNVPRP, which “shrunken log2 fold change” value is on record?
The value was -0.128.

How did the “shrunken log2 fold change” value turn out when RRIRCRPPRLPRPRPRPADFPRP was run?
The value was 1.07.

For RRIRIRPPRLPRPRPRPCKEPRP, which “shrunken log2 fold change” value is on record?
The value was 1.82.

For RRIRTRPPRLPRPRPRPTWTPRP, which “shrunken log2 fold change” value is on record?
Its value is -0.136.

With RRIRLRPPRLPRPRPRPNLIPRP as the sequence, how does the “shrunken log2 fold change” value read?
The value was -0.117.

With RRIRERPPRLPRPRPRPKFIPRP as the sequence, how does the “shrunken log2 fold change” value read?
The value was -0.144.

For RRIRRRPPRLPRPRPRPWDMPRP, which “shrunken log2 fold change” value is on record?
Its value is 0.0681.

RRIRMRPPRLPRPRPRPWANPRP was tested. Which “shrunken log2 fold change” value did it give?
Its value is -0.0525.

For RRIRFRPPRLPRPRPRPTVCPRP, which “shrunken log2 fold change” value is on record?
The value was -0.0464.

With RRIRIRPPRLPRPRPRPIPMPRP as the sequence, how does the “shrunken log2 fold change” value read?
Its value is -0.705.

With RRIRMRPPRLPRPRPRPNAHPRP as the sequence, how does the “shrunken log2 fold change” value read?
The value was 8.74e-05.

With RRIRFRPPRLPRPRPRPVYQPRP as the sequence, how does the “shrunken log2 fold change” value read?
Its value is -0.0402.

Which “shrunken log2 fold change” value does the source give for RRIRQRPPRLPRPRPRPIFPPRP here?
The value was 0.122.

How did the “shrunken log2 fold change” value turn out when RRIRCRPPRLPRPRPRPVWLPRP was run?
Its value is 0.0721.

For RRIRFRPPRLPRPRPRPCPSPRP, which “shrunken log2 fold change” value is on record?
The value was -0.0894.

How did the “shrunken log2 fold change” value turn out when RRIRERPPRLPRPRPRPRVCPRP was run?
Its value is 0.0408.

RRIRRRPPRLPRPRPRPFLYPRP was tested. Which “shrunken log2 fold change” value did it give?
The value was 0.0538.

RRIRDRPPRLPRPRPRPMNHPRP was tested. Which “shrunken log2 fold change” value did it give?
The value was -0.513.

Which “shrunken log2 fold change” value does the source give for RRIRNRPPRLPRPRPRPRDCPRP here?
The value was 0.0442.

For RRIRTRPPRLPRPRPRPCIDPRP, which “shrunken log2 fold change” value is on record?
Its value is -0.519.

RRIRIRPPRLPRPRPRPKNWPRP was tested. Which “shrunken log2 fold change” value did it give?
The value was -0.035.

For RRIRGRPPRLPRPRPRPVQGPRP, which “shrunken log2 fold change” value is on record?
Its value is 0.301.

With RRIRQRPPRLPRPRPRPWCDPRP as the sequence, how does the “shrunken log2 fold change” value read?
Its value is -0.191.

For RRIRYRPPRLPRPRPRPCHMPRP, which “shrunken log2 fold change” value is on record?
The value was -0.218.

For RRIRCRPPRLPRPRPRPPHYPRP, which “shrunken log2 fold change” value is on record?
Its value is 0.638.

Which “shrunken log2 fold change” value does the source give for RRIRCRPPRLPRPRPRPSWCPRP here?
The value was -0.417.

With RRIRKRPPRLPRPRPRPRAWPRP as the sequence, how does the “shrunken log2 fold change” value read?
The value was 0.389.

For RRIRYRPPRLPRPRPRPSSTPRP, which “shrunken log2 fold change” value is on record?
Its value is -0.158.

RRIRGRPPRLPRPRPRPSMNPRP was tested. Which “shrunken log2 fold change” value did it give?
Its value is 0.156.

Which “shrunken log2 fold change” value does the source give for RRIRGRPPRLPRPRPRPKNIPRP here?
Its value is -0.101.

RRIRKRPPRLPRPRPRPMINPRP was tested. Which “shrunken log2 fold change” value did it give?
The value was 0.148.

How did the “shrunken log2 fold change” value turn out when RRIRIRPPRLPRPRPRPPMYPRP was run?
The value was -0.849.

How did the “shrunken log2 fold change” value turn out when RRIRFRPPRLPRPRPRPHYMPRP was run?
Its value is -0.737.

With RRIRARPPRLPRPRPRPNAEPRP as the sequence, how does the “shrunken log2 fold change” value read?
Its value is 0.679.

With RRIRTRPPRLPRPRPRPSRDPRP as the sequence, how does the “shrunken log2 fold change” value read?
Its value is -0.139.

Which “shrunken log2 fold change” value does the source give for RRIRDRPPRLPRPRPRPIELPRP here?
Its value is 0.0698.

How did the “shrunken log2 fold change” value turn out when RRIRARPPRLPRPRPRPGKHPRP was run?
Its value is 0.089.

RRIRWRPPRLPRPRPRPQKFPRP was tested. Which “shrunken log2 fold change” value did it give?
The value was -0.0956.

With RRIRKRPPRLPRPRPRPPSMPRP as the sequence, how does the “shrunken log2 fold change” value read?
The value was 0.669.

RRIRGRPPRLPRPRPRPFCFPRP was tested. Which “shrunken log2 fold change” value did it give?
The value was 0.778.

Which “shrunken log2 fold change” value does the source give for RRIRMRPPRLPRPRPRPYYSPRP here?
Its value is -0.0674.

Which “shrunken log2 fold change” value does the source give for RRIRHRPPRLPRPRPRPDHIPRP here?
Its value is -0.336.

For RRIRCRPPRLPRPRPRPVTQPRP, which “shrunken log2 fold change” value is on record?
The value was -0.15.

For RRIRSRPPRLPRPRPRPWYWPRP, which “shrunken log2 fold change” value is on record?
The value was -0.307.

For RRIRERPPRLPRPRPRPCNWPRP, which “shrunken log2 fold change” value is on record?
Its value is -0.0685.

With RRIRIRPPRLPRPRPRPMHQPRP as the sequence, how does the “shrunken log2 fold change” value read?
Its value is -0.121.

How did the “shrunken log2 fold change” value turn out when RRIRDRPPRLPRPRPRPRVPPRP was run?
Its value is 0.523.

How did the “shrunken log2 fold change” value turn out when RRIRKRPPRLPRPRPRPDISPRP was run?
The value was -0.0841.

For RRIRDRPPRLPRPRPRPKPWPRP, which “shrunken log2 fold change” value is on record?
Its value is 0.46.

How did the “shrunken log2 fold change” value turn out when RRIRARPPRLPRPRPRPDDAPRP was run?
Its value is 0.138.

RRIRTRPPRLPRPRPRPVTEPRP was tested. Which “shrunken log2 fold change” value did it give?
The value was 0.0394.

Which “shrunken log2 fold change” value does the source give for RRIRNRPPRLPRPRPRPSNDPRP here?
Its value is -0.349.

Which “shrunken log2 fold change” value does the source give for RRIRIRPPRLPRPRPRPDREPRP here?
The value was 0.00825.

For RRIRFRPPRLPRPRPRPHSPPRP, which “shrunken log2 fold change” value is on record?
The value was -0.389.

For RRIRVRPPRLPRPRPRPFHHPRP, which “shrunken log2 fold change” value is on record?
The value was -0.182.

RRIRSRPPRLPRPRPRPQYPPRP was tested. Which “shrunken log2 fold change” value did it give?
The value was -0.157.

For RRIRKRPPRLPRPRPRPPIEPRP, which “shrunken log2 fold change” value is on record?
The value was 0.223.

RRIRGRPPRLPRPRPRPQCRPRP was tested. Which “shrunken log2 fold change” value did it give?
The value was 0.0701.

RRIRQRPPRLPRPRPRPVSEPRP was tested. Which “shrunken log2 fold change” value did it give?
The value was -0.202.

For RRIRKRPPRLPRPRPRPRQEPRP, which “shrunken log2 fold change” value is on record?
Its value is 0.461.

RRIRERPPRLPRPRPRPHGQPRP was tested. Which “shrunken log2 fold change” value did it give?
The value was -0.0165.

Which “shrunken log2 fold change” value does the source give for RRIRLRPPRLPRPRPRPTFFPRP here?
The value was 0.14.

RRIRKRPPRLPRPRPRPEWEPRP was tested. Which “shrunken log2 fold change” value did it give?
The value was 0.271.

For RRIRFRPPRLPRPRPRPGEEPRP, which “shrunken log2 fold change” value is on record?
Its value is 0.0793.

Which “shrunken log2 fold change” value does the source give for RRIRWRPPRLPRPRPRPPWSPRP here?
The value was 0.378.

With RRIRHRPPRLPRPRPRPGWHPRP as the sequence, how does the “shrunken log2 fold change” value read?
The value was 0.208.

RRIRKRPPRLPRPRPRPYPLPRP was tested. Which “shrunken log2 fold change” value did it give?
The value was -0.095.

Which “shrunken log2 fold change” value does the source give for RRIRSRPPRLPRPRPRPKHRPRP here?
The value was -0.00685.

With RRIRRRPPRLPRPRPRPKFPPRP as the sequence, how does the “shrunken log2 fold change” value read?
Its value is 0.361.

How did the “shrunken log2 fold change” value turn out when RRIRMRPPRLPRPRPRPILAPRP was run?
Its value is 0.261.

With RRIRQRPPRLPRPRPRPPDWPRP as the sequence, how does the “shrunken log2 fold change” value read?
The value was 0.34.

With RRIRQRPPRLPRPRPRPDTTPRP as the sequence, how does the “shrunken log2 fold change” value read?
Its value is 0.0217.

RRIRSRPPRLPRPRPRPEIMPRP was tested. Which “shrunken log2 fold change” value did it give?
Its value is 0.0625.

With RRIRLRPPRLPRPRPRPDTCPRP as the sequence, how does the “shrunken log2 fold change” value read?
The value was -0.149.
